Results on 167 variants are retold here after the RNAGym collection of RNA variant scans (doi:10.7554/elife.80360).

To fix the notation:
B1: CPEB3 Ribozyme (parent)
chain: GGGGGCCACAGCAGAAGCGUUCACGUCGCGGCCCCUGUCAGAUUCUGGUGAAUCUGCGAAUUCUGCUGU

The data set covers variants of B1. The data set can be described thus: self-cleavage, relative activity (ratio to wild type); higher = more cleavage; co-transcriptional.
As for A23U G37A, the self-cleavage was 0.384.
In the case of A23U G37U it was 0.347; in that of A23U G37C, 0.149; in that of A23C U26A, 0.628.
In the case of A23C U26C it was 0.966; in that of C24G G28C, 0.224; in that of C24G G28U, 0.13.
As for A23C U38A, the self-cleavage stood at 0.75.
In the case of A23C U38C it was 0.85; in that of C24G G41U, 0.207.
In the case of C24G G41A it was 0.247; in that of C24A C32G, 0.234.
Turning to A23U C45A, the self-cleavage was 0.997.
Regarding A23U C45G, the self-cleavage was 1.
In the case of C24A C57A it was 0.188; in that of A23G A40U, 0.665; in that of C24A U61A, 0.452.
In the case of C24A U61G it was 0.347; in that of C24G G47C, 0.502; in that of C24A G31A, 0.372.
On to C24A C63G, for which the self-cleavage is 0.392.
Turning to A23G C35U, the self-cleavage came to 0.935.
In the case of A23C U55G it was 0.708.
In the case of A23C U55A it was 0.866; in that of A23C U49G, 0.916.
In the case of A23G G50U it was 0.971.
For A23G G50A, the self-cleavage was 0.971.
In the case of C24G C39G it was 0.324; in that of C24G C39A, 0.214.
In the case of A23G C39U it was 0.86.
Consider A23G C29U, for which the self-cleavage was 0.217.
For the variant A23C U62A, the self-cleavage stood at 0.755.
C24A G65A: the self-cleavage turned out to be 0.441.
As to C24A G65U, the self-cleavage worked out at 0.303.
In the case of C24A G65C it was 0.245; in that of C24G G37U, 0.278.
In the case of A23U C33U it was 0.998.
In the case of C24A U67C it was 0.713; in that of A23U C35A, 0.395; in that of A23U U61C, 0.895.
Take A23G U46A: the self-cleavage came out at 1.01.
In the case of A23G U46G, the self-cleavage stood at 1.01.
On to A23U G28A, for which the self-cleavage turned out to be 0.226.
With A23U C34U, the self-cleavage came to 1.01.
For A23C U43C, the self-cleavage was determined as 0.89.
As for C24G C33A, the self-cleavage was determined as 0.206.
In the case of C24G C33G it was 0.201; in that of A23G G48A, 1.
In the case of A23G C32G it was 0.337.
Regarding A23C G48A, the self-cleavage came out at 0.978.
As for A23C G48U, the self-cleavage came out at 0.942.
As for C24G G31U, the self-cleavage was found to be 0.215.
Take C24A A51U: the self-cleavage was found to be 0.782.
In the case of C24A C54A it was 0.516.
In the case of C24A C54G it was 0.549; in that of A23G U53G, 0.85.
For A23U C66A, the self-cleavage is 0.886.
In the case of C24A A59C it was 0.32; in that of A23G G58A, 0.991; in that of A23G G58U, 0.972.
In the case of A23U C32A it was 0.893; in that of A23G G31U, 0.583.
In the case of A23G G31A it was 0.781; in that of A23G A59G, 1.01.
In the case of C24A U69C, the self-cleavage came to 0.972.
A23U G58U: the self-cleavage is 1.01.
For the variant A23U G58C, the self-cleavage worked out at 1.02.
In the case of A23U G58A it was 1.02.
In the case of A23U G47C it was 0.999.
In the case of A23U C24G it was 0.556; in that of A23U C24U, 0.924.
Regarding C24A C27U, the self-cleavage is 0.168.
In the case of C24A U49C it was 0.74; in that of C24A U49G, 0.686.
Consider A23U U64C, for which the self-cleavage turned out to be 0.905.
In the case of A23U G65U it was 0.811.
With C24G C54U, the self-cleavage stood at 0.602.
Regarding C24A U43C, the self-cleavage was found to be 0.631.
Turning to A23U U43G, the self-cleavage came out at 0.884.
In the case of C24G A42C it was 0.385; in that of A23C G47U, 0.993; in that of C24A G37U, 0.231.
Consider A23G U64C, for which the self-cleavage turned out to be 0.777.
A23G U64G: the self-cleavage is 0.738.
C24G A52C: the self-cleavage came out at 0.391.
With C24G A52U, the self-cleavage amounted to 0.409.
In the case of C24A A52C it was 0.634; in that of C24A A52U, 0.632.
In the case of C24A C35A, the self-cleavage stood at 0.185.
With C24A C35U, the self-cleavage was determined as 0.476.
In the case of A23U U69G it was 1.04; in that of C24A U55A, 0.617; in that of C24A U55C, 0.434.
In the case of A23C U61C it was 0.689; in that of A23C U64A, 0.833.
In the case of C24G G48C it was 0.449; in that of C24G G48A, 0.554; in that of C24A G58C, 0.509.
A23G G56A: the self-cleavage amounted to 0.953.
Take C24G C32A: the self-cleavage was determined as 0.224.
As to C24A A42U, the self-cleavage is 0.66.
On to C24A A42C, for which the self-cleavage was 0.629.
In the case of A23U A59C it was 0.888.
In the case of A23U A59U it was 0.969.
For the variant A23C U69G, the self-cleavage was found to be 1.02.
Turning to C24G A51U, the self-cleavage amounted to 0.353.
In the case of A23U G48C, the self-cleavage was 1.06.
In the case of C24G C35A it was 0.167; in that of A23G C45A, 0.955; in that of A23C U36G, 0.326.
Take A23C U36A: the self-cleavage amounted to 0.335.
In the case of C24A U36C it was 0.27.
In the case of A23G G25C it was 0.169.
Regarding A23C U67G, the self-cleavage stood at 0.968.
On to A23G G28A, for which the self-cleavage was 0.136.
Regarding A23G G28C, the self-cleavage was 0.13.
In the case of A23U A51G it was 0.954; in that of C24A C34U, 0.803.
For the variant A23G C34G, the self-cleavage stood at 0.243.
In the case of A23G U61G it was 0.734; in that of A23G U61A, 0.867.
In the case of A23U G31A it was 0.977.
In the case of C24A U26C it was 0.507.
C24A G68C: the self-cleavage came to 0.825.
In the case of A23G C27G it was 0.175.
In the case of C24A A40U it was 0.383; in that of C24A U64C, 0.471; in that of C24A U64G, 0.508.
In the case of A23C U46C it was 0.959; in that of A23C U46G, 0.962; in that of A23G A51G, 0.962.
In the case of A23G A51C, the self-cleavage turned out to be 0.914.
For the variant A23U U55G, the self-cleavage turned out to be 0.908.
Consider A23U U55A, for which the self-cleavage stood at 0.877.
Regarding C24G C29G, the self-cleavage came to 0.194.
For C24G C29U, the self-cleavage is 0.0935.
For the variant C24A G50U, the self-cleavage came to 0.722.
In the case of C24A G30C it was 0.159; in that of C24G A60G, 0.264.
As to A23U U62G, the self-cleavage was determined as 0.894.
For the variant A23U U62C, the self-cleavage was 0.885.
Consider A23G C57A, for which the self-cleavage is 0.394.
Regarding C24G G25U, the self-cleavage came to 0.104.
In the case of A23G U26G it was 0.788.
In the case of A23G U26C it was 1.03; in that of A23C G56U, 0.88.
In the case of A23C G58A it was 0.89; in that of A23C G58U, 0.929.
Consider A23U A42G, for which the self-cleavage amounted to 0.978.
Regarding A23U A42C, the self-cleavage came out at 0.992.
In the case of A23U A42U it was 1.
As for A23C U53A, the self-cleavage is 0.89.
In the case of C24A G47C it was 0.765; in that of C24A G47U, 0.754.
In the case of A23U U38G it was 0.206.
Regarding A23U U38A, the self-cleavage was 0.95.
On to A23U U38C, for which the self-cleavage worked out at 0.96.
In the case of C24A U62G it was 0.425; in that of C24G A40U, 0.14.
In the case of A23U C57G it was 0.358; in that of C24G C66U, 0.502; in that of A23C G68A, 0.969.
In the case of A23C U44A it was 0.936; in that of A23C U44G, 0.946.
Consider A23G A42G, for which the self-cleavage was determined as 0.867.
In the case of A23G A42U it was 0.862.
In the case of A23G A42C it was 0.911.
